Assay [1] deals with human SEZ6 on patient-derived NTX tumor cells (human) (UniProt Q53EL9). Briefly: flow cytometry, LU64 NTX tumor cells, dot plot CD324 against MOPC isotype control, gate at 10^3.
The target is the same in assay [2]. In words: flow cytometry, LU86 NTX tumor cells, dot plot CD324 against MOPC isotype control.
Assay [3] shares this target. In words: flow cytometry, LU117 NTX tumor cells, dot plot CD324 against MOPC isotype control, gate at 10^3. A general note: In flow cytometry, cells or beads pass a laser one at a time.
Assay [4] has the same target. In words: flow cytometry on LU100 NTX tumor cells; FMO (MFI) of the same line 289.
The target is the same in assay [5]. In words: flow cytometry, LU64 NTX tumor cells, dot plot CD324 against SC17.42, gate at 10^3.
The target of assay [6] is T1, cynomolgus SEZ6 extracellular domain displayed on yeast (cynomolgus, UniProt Q53EL9 23-925 (human entry)).
T1 construct: also called cSEZ6; cynomolgus SEZ6 ECD
T1 chain: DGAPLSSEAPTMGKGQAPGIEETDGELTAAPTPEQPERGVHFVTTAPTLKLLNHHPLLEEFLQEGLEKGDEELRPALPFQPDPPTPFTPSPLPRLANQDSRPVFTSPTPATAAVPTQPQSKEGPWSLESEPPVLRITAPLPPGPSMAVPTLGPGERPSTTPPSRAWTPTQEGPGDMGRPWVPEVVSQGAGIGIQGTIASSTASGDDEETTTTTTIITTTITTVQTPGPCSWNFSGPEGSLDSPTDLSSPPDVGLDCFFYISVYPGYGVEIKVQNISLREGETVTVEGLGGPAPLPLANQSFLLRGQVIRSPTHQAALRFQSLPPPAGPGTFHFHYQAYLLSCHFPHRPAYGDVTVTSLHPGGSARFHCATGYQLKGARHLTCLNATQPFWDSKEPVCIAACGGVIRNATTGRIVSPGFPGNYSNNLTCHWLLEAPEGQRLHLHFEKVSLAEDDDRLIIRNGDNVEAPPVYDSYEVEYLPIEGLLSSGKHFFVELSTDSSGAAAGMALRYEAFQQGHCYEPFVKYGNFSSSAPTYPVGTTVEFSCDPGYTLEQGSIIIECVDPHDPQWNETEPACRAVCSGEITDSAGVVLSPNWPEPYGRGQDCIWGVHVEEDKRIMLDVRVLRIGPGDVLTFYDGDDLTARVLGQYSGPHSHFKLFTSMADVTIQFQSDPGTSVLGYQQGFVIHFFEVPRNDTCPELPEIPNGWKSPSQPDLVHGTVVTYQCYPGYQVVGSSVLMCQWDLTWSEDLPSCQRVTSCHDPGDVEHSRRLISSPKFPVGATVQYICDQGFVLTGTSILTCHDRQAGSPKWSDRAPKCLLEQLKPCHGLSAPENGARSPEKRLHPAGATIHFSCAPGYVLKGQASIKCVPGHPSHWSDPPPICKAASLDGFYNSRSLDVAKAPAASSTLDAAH
In words: assay not given.

Assay [7] concerns the target T2, recombinant rat SEZ6 ECD with 9-Histidine tag (rat, UniProt Q7TSK2 20-922 (mouse entry)).
T2 construct: also called rSEZ6-ECD-His; rat recombinant SEZ6-His
T2 chain: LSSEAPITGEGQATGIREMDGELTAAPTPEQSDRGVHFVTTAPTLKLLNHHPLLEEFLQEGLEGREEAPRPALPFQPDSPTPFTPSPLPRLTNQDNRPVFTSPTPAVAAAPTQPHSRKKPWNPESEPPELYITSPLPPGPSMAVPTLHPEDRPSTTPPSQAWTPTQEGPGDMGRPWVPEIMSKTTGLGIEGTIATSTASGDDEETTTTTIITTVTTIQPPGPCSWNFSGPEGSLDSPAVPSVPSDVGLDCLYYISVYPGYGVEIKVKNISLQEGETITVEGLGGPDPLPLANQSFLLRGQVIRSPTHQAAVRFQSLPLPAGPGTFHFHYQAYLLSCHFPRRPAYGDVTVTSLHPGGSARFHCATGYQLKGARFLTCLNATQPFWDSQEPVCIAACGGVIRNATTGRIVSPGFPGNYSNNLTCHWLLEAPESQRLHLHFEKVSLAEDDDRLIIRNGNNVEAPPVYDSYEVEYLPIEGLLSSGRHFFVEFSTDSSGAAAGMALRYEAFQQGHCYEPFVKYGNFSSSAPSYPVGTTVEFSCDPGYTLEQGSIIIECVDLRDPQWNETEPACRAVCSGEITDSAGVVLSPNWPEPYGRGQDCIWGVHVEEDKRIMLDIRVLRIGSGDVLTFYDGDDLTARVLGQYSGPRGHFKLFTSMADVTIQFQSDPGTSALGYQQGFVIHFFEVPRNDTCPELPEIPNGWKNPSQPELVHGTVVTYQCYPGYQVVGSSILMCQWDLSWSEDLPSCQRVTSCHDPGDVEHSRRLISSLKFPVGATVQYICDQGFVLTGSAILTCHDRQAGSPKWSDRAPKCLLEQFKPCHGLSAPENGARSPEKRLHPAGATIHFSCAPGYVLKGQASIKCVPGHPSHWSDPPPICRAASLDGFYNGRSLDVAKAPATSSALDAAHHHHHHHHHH
In words: assay not given.

For assay [8], the target named is human SEZ6 overexpressed on HEK-293T cells (human, UniProt Q53EL9 20-994). In words: cell-based or functional assay.

Regarding MOPC (antibody), the % of cells CD324+ and MOPC+ (upper right quadrant) was 0.597% in assay [1], 0.483% in assay [2] and 0.347% in assay [3]. Further, the % of cells CD324- and MOPC+ (lower right quadrant) was found to be 0.014% in assay [2] and 0.05% in assay [3].

B1: SC17.42 (antibody, from a related filing, V domains shown)
VH: DVKLVESGGGLVRPGGSLKLSCAASGFTFSRYTMSWVRQTPEKRLEWAATINSGGSNTYYPDSVKGRFTISRDNAKNTLFLQMSSLKSEDTAMYYCTNGNHWGQGTTLTVSS
VL: ENVLTQSPAIMSASPGEKVTMTCSASSSVNYMYWYQQKSSTSPKLWIYDTSKLTSGVPGRFSGSGSGNSYSLTISNMEAEDVATYYCFQGSGYPLTFGSGTKLEIK
With B1, the Tumor (MFI) in assay [4] is 1400. For the same molecule, in assay [5], the % of cells CD324+ and SC17.42+ (upper right quadrant) worked out at 27.7%; the % of cells CD324- and SC17.42+ (lower right quadrant) was 0.637%.

B2: SC17.46 (antibody, V domains shown)
VH: QVQLQQPGAELVKPGASMKLSCKASGYTFTSYWINWVKQRPGQGLEWIGNIFPDTTTTNYNEKFKSKATLTVDTSSSTAYMQLSSLTSDDSAVYYCAREYYDGTYDAMDYWGQGTSVTVS
VL: SFVMTQTPKFLLVSAGDRVTITCKASQSVNNDVAWYQQKPGQSPKLLIYYASNRYTGVPDRFTGSGYGTDFTFTISTVQAEDLAVYFCQQDYSSPRTFGGGTKLEIK
notes: murine mAb
As for B2, the binding result in assay [6] and in assay [7] was “no binding” each time.

B3: hSC17.17-ADC1 (antibody, V domains shown)
VH: QVQLVQSGAEVKKPGASVKVSCKASGYTFTDYNMHWVRQAPGQGLEWMGEINPNIGGTGYNQKFKGRVTMTRDTSISTAYMELSRLRSDDTAVYYCARTYSYYSYEFAYWGQGTLVTVSS
VL: EIVLTQSPATLSLSPGERATLSCSASSSVSYMHWYQQKPGQAPRLLIYDTSKLPSGIPARFSGSGSGTDFTLTISSLEPEDFAVYYCQQWSSTPPTFGQGTKLEIK
modifications: PBD dimer (ADC1) through a maleimido linker on reduced Cys residues
Turning to B3, in assay [8], the “in vitro cytotoxicity, IC50” value was determined as 11 nM.

The values are drawn from patent US20170369571A1 (AbbVie / Abbott, published 2017).
